Results reported in US20260286408A1, “PROCESS FOR MAKING FLAVANONE DERIVATIVES” (priority 2022, published 2026).

Assay: Biotransformation of flavanones with whole cells of E. coli BL21 (DE3)-AthF3H
Type: biochemical
Conditions: whole cells OD10, 1 g/L substrate, pH 7, 30° C., 2 h, all substrates
Description: The gene (GenBank: U33932) encoding the flavanone-3-hydroxylase (F3H) from Arabidopsis thaliana was ordered codon-optimized for E. coli. E. coli BL21 (DE3) was transformed with the resulting construct. For the precultures LB medium containing kanamycin (50 μg/mL) was inoculated with E. coli BL21 (DE3) strains harboring the constructs and incubated at 37° C. and 200 rpm over-night. The preculture was used to inoculate the main culture of 400 mL LB medium containing kanamycin (50 μg/mL), which was incubated at 37° C. until the optical density at 600 nm (OD600) reached approximately 0.8. Expression of AthF3H was induced by 0.1 mM IPTG (isopropyl-D-thiogalactopyranoside) and the cultures were shaken at 20-25° C. for 20 h. The cells were harvested by centrifugation, and then resuspended in 100 mM potassium phosphate buffer (KPi, pH 7) to an OD of 50.
Biotransformations were carried out with whole cells of E. coli BL21 (DE3)-AthF3H at OD10 in a total volume of 1 mL in 100 mM potassium phosphate buffer (KPi, pH 7) containing 10% DMSO, 1 g/L of eriodictyol, hesperetin, homoeriodictyol, pinocembrin, liquiritigenin or 5-deoxyeriodictyol, 10 mM α-ketoglutarate, 10 mM ascorbic acid and 0.25 mM FeSO4 at 30° C. and 1000 rpm for 2 h. […]

B1: AthF3H: flavanone-3-hydroxylase (F3H) from Arabidopsis thaliana (GenBank: U33932), expressed in E. coli BL21 (DE3) (protein, UniProt Q9S818 1-358, looked up)
Naringenin,2-oxoglutarate …: MAPGTLTELAGESKLNSKFVRDEDERPKVAYNVFSDEIPVISLAGIDDVDGKRGEICRQIVEACENWGIFQVVDHGVDTNLVADMTRLARDFFALPPEDKLRFDMSGGKKGGFIVSSHLQGEAVQDWREIVTYFSYPVRNRDYSRWPDKPEGWVKVTEEYSERLMSLACKLLEVLSEAMGLEKESLTNACVDMDQKIVVNYYPKCPQPDLTLGLKRHTDPGTITLLLQDQVGGLQATRDNGKTWITVQPVEGAFVVNLGDHGHFLSNGRFKNADHQAVVNSNSSRLSIATFQNPAPDATVYPLKVREGEKAILEEPITFAEMYKRKMGRDLELARLKKLAKEERDHKEVDKPVDQIFA
Q: Which “conversion of flavanone substrates by F3H” value does the source give for B1 here?
A: full conversion of the available (S)-enantiomer
